Measurements published in patent US20040180399A1 (Pfizer, published 2004).

B2: IL-22BP-Ig (Fc fusion)
chain: TQSTHESLKPQRVQFQSRNFHNILQWQPGRALTGNSSVYFVQYKIYGQRQWKNKEDCWGTQELSCDLTSETSDIQEPYYGRVRAASAGSYSEWSMTPRFTPWWETKIDPPVMNITQVNGSLLVILHAPNLPYRYQKEKNVSIEDYYELLYRVFIINNSLEKEQKVYEGAHRAVEIEALTPHSSYCVVAEIYQPMLDRRSQRSEERCVEIP
notes: Used as supernatant of transiently transfected HEK293 cells; it may begin with Met or Met Met; also called IL-TIFR-Ig; IL-22BP fusion protein; not shown: hinge, CH2 and CH3 domains of murine IgG3 isotype heavy chain, amplified from IgG3 anti-TNP hybridoma C3110

Columns and labels:
[1] = target: B2; test: ELISA, IL-TIF/IL-22 coated on plate, HEK293 supernatant, anti-Ig peroxidase detection
Experimental: (§1) Assays were then carried out by coating polystyrene plates with either 0.083 mg/ml of recombinant human IL-TIF/IL-22, or […] bovine serum albumin, in 20 mm Tris. Glycine buffer containing 30 mm NaCl, pH 9.2, overnight, at 4° C. Following washing in PBS buffer plus Tween 20 (10⁻⁴) plates were blocked with PBS plus 1% BSA for two hours, and then 50 μl of supernatant from transiently transfected HEK293 cells was added. Plates were then incubated for 2 hours, at 37° C. Any bound fusion protein was detected, using murine anti-Ig polyclonal antibodies coupled to peroxidase. Detection was carried out using the peroxidase substrate “TMB”, or (3,3′,5, 5′-tetramethylbenzidine), and stopped by 20 μl H₂S0_{4.}

[2] = target: T1, bovine serum albumin (bovine, UniProt P02769 25-607); test: ELISA, coated plate, HEK293 supernatant, anti-Ig peroxidase detection
T1 construct: Negative control coating in the ELISA; also called BSA
Experimental: as §1

T1 sequence (P02769 25-607 limits assumed): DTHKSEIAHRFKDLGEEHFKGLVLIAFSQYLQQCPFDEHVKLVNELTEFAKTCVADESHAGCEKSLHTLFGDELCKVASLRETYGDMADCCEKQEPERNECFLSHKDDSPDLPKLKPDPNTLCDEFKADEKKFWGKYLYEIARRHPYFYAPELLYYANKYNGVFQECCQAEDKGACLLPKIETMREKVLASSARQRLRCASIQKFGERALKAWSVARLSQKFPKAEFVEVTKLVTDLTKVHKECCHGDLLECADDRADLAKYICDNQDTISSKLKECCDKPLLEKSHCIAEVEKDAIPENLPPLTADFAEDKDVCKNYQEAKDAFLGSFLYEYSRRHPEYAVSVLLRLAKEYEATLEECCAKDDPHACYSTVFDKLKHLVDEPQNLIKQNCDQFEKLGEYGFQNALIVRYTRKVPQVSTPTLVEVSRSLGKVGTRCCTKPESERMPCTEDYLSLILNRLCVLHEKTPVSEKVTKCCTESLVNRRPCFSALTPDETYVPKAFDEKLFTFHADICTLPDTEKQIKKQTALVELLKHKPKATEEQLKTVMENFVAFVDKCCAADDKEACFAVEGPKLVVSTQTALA

B1: recombinant human IL-TIF/IL-22 (ligand, UniProt Q9GZX6 34-179, looked up)
chain: APISSHCRLDKSNFQQPYITNRTFMLAKEASLADNNTDVRLIGEKLFHGVSMSERCYLMKQVLNFTLEEVLFPQSDRFQPYMQEVVPFLARLSNRLSTCHIEGDDLHIQRNVQKLKDTVKKLGESGEIKAIGELDLLFMSLRNACI
[1]
  binding result: binds

## B2
[2]
  binding result: no binding

B3: IL-22R-Ig (Fc fusion, UniProt Q8N6P7 16-228, looked up)
chain: HAPEDPSDLLQHVKFQSSNFENILTWDSGPEGTPDTVYSIEYKTYGERDWVAKKGCQRITRKSCNLTVETGNLTELYYARVTAVSAGGRSATKMTDRFSSLQHTTLKPPDVTCISKVRSIQMIVHPTPTPIRAGDGHRLTLEDIFHDLFYHLELQVNRTYQMHLGGKQREYEFFGLTPDTEFLGTIMICVPTWAKESAPYMCRVKTLPDRTWT
notes: Used as supernatant of transiently transfected HEK293 cells; also called fusion protein of IL-22R and the IgG3 Fc fragment; not shown: IgG3 Fc fragment, made 'in similar fashion' to the murine IgG3 hinge-CH2-CH3 of IL-TIFR-Ig
[2]
  binding result: no binding
